In paper PMC5409451:

Columns and labels:
[1] = biological target: EV71 2C 116–329 E325A (enterovirus 71); assay: SEC
[2] = biological target: EV71 2C 116–329 (enterovirus 71) (UniProt Q66478); assay: SEC

Substance	stoichiometry N [1]	stoichiometry N [2]
EV71 2C 116–329 E325A (domain or fragment)	2	–
EV71 2C 116–329 (from UniProt Q66478 117-330) (domain or fragment)	–	4
